# Like-named read-outs stand apart in the source and are kept apart here.
# B1: RBMS1 (protein, UniProt P29558 1-406, looked up)
# RNA-binding motif, …: MGKVWKQQMYPQYATYYYPQYLQAKQSLVPAHPMAPPSPSTTSSNNNSSSSSNSGWDQLSKTNLYIRGLPPHTTDQDLVKLCQPYGKIVSTKAILDKTTNKCKGYGFVDFDSPAAAQKAVSALKASGVQAQMAKQQEQDPTNLYISNLPLSMDEQELENMLKPFGQVISTRILRDSSGTSRGVGFARMESTEKCEAVIGHFNGKFIKTPPGVSAPTEPLLCKFADGGQKKRQNPNKYIPNGRPWHREGEVRLAGMTLTYDPTTAAIQNGFYPSPYSIATNRMITQTSITPYIASPVSAYQVQSPSWMQPQPYILQHPGAVLTPSMEHTMSLQPASMISPLAQQMSHLSLGSTGTYMPATSAMQGAYLPQYAHMQTTAVPVEEASGQQQVAVETSNDHSPYTFQPNK
# B2: SRSF2 (protein, UniProt Q01130 2-221, looked up)
# Serine/arginine-rich splicing …: SYGRPPPDVEGMTSLKVDNLTYRTSPDTLRRVFEKYGRVGDVYIPRDRYTKESRGFAFVRFHDKRDAEDAMDAMDGAVLDGRELRVQMARYGRPPDSHHSRRGPPPRRYGGGGYGRRSRSPRRRRRSRSRSRSRSRSRSRSRYSRSKSRSRTRSRSRSTSKSRSARRSKSKSSSVSRSRSRSRSRSRSRSPPPVSKRESKSRSRSKSPPKSPEEEGAVSS
# B3: HNRNPR (protein, UniProt O43390 2-633, looked up)
# Heterogeneous nuclear …: ANQVNGNAVQLKEEEEPMDTSSVTHTEHYKTLIEAGLPQKVAERLDEIFQTGLVAYVDLDERAIDALREFNEEGALSVLQQFKESDLSHVQNKSAFLCGVMKTYRQREKQGSKVQESTKGPDEAKIKALLERTGYTLDVTTGQRKYGGPPPDSVYSGVQPGIGTEVFVGKIPRDLYEDELVPLFEKAGPIWDLRLMMDPLSGQNRGYAFITFCGKEAAQEAVKLCDSYEIRPGKHLGVCISVANNRLFVGSIPKNKTKENILEEFSKVTEGLVDVILYHQPDDKKKNRGFCFLEYEDHKSAAQARRRLMSGKVKVWGNVVTVEWADPVEEPDPEVMAKVKVLFVRNLATTVTEEILEKSFSEFGKLERVKKLKDYAFVHFEDRGAAVKAMDEMNGKEIEGEEIEIVLAKPPDKKRKERQAARQASRSTAYEDYYYHPPPRMPPPIRGRGRGGGRGGYGYPPDYYGYEDYYDDYYGYDYHDYRGGYEDPYYGYDDGYAVRGRGGGRGGRGAPPPPRGRGAPPPRGRAGYSQRGAPLGPPRGSRGGRGGPAQQQRGRGSRGSRGNRGGNVGGKRKADGYNQPDSKRRQTNNQQNWGSQPIAQQPLQQGGDYSGNYGYNNDNQEFYQDTYGQQWK
# B4: G3BP2: host protein of the core SARS-CoV-2 RNA interactome (protein, UniProt Q9UN86 2-482, looked up)
# Ras GTPase-activating …: VMEKPSPLLVGREFVRQYYTLLNKAPEYLHRFYGRNSSYVHGGVDASGKPQEAVYGQNDIHHKVLSLNFSECHTKIRHVDAHATLSDGVVVQVMGLLSNSGQPERKFMQTFVLAPEGSVPNKFYVHNDMFRYEDEVFGDSEPELDEESEDEVEEEQEERQPSPEPVQENANSGYYEAHPVTNGIEEPLEESSHEPEPEPESETKTEELKPQVEEKNLEELEEKSTTPPPAEPVSLPQEPPKAFSWASVTSKNLPPSGTVSSSGIPPHVKAPVSQPRVEAKPEVQSQPPRVREQRPRERPGFPPRGPRPGRGDMEQNDSDNRRIIRYPDSHQLFVGNLPHDIDENELKEFFMSFGNVVELRINTKGVGGKLPNFGFVVFDDSEPVQRILIAKPIMFRGEVRLNVEEKKTRAARERETRGGGDDRRDIRRNDRGPGGPRGIVGGGMMRDRDGRGPPPRGGMAQKLGSGRGTGQMEGRFTGQRR
# B5: PPP1CB (protein, UniProt P62140 2-327, looked up)
# Serine/threonine-protein …: ADGELNVDSLITRLLEVRGCRPGKIVQMTEAEVRGLCIKSREIFLSQPILLELEAPLKICGDIHGQYTDLLRLFEYGGFPPEANYLFLGDYVDRGKQSLETICLLLAYKIKYPENFFLLRGNHECASINRIYGFYDECKRRFNIKLWKTFTDCFNCLPIAAIVDEKIFCCHGGLSPDLQSMEQIRRIMRPTDVPDTGLLCDLLWSDPDKDVQGWGENDRGVSFTFGADVVSKFLNRHDLDLICRAHQVVEDGYEFFAKRQLVTLFSAPNYCGEFDNAGGMMSVDETLMCSFQILKPSEKKAKYQYGGLNSGRPVTPPRTANPPKKR
# B6: TRA2A (protein, UniProt Q13595 2-282, looked up)
# Transformer-2 protein homolog …: SDVEENNFEGRESRSQSKSPTGTPARVKSESRSGSRSPSRVSKHSESHSRSRSKSRSRSRRHSHRRYTRSRSHSHSHRRRSRSRSYTPEYRRRRSRSHSPMSNRRRHTGSRANPDPNTCLGVFGLSLYTTERDLREVFSRYGPLSGVNVVYDQRTGRSRGFAFVYFERIDDSKEAMERANGMELDGRRIRVDYSITKRAHTPTPGIYMGRPTHSGGGGGGGGGGGGGGGGRRRDSYYDRGYDRGYDRYEDYDYRYRRRSPSPYYSRYRSRSRSRSYSPRRY
# B7: PA2G4 (protein, UniProt Q9UQ80 2-394, looked up)
# Proliferation-associated …: SGEDEQQEQTIAEDLVVTKYKMGGDIANRVLRSLVEASSSGVSVLSLCEKGDAMIMEETGKIFKKEKEMKKGIAFPTSISVNNCVCHFSPLKSDQDYILKEGDLVKIDLGVHVDGFIANVAHTFVVDVAQGTQVTGRKADVIKAAHLCAEAALRLVKPGNQNTQVTEAWNKVAHSFNCTPIEGMLSHQLKQHVIDGEKTIIQNPTDQQKKDHEKAEFEVHEVYAVDVLVSSGEGKAKDAGQRTTIYKRDPSKQYGLKMKTSRAFFSEVERRFDAMPFTLRAFEDEKKARMGVVECAKHELLQPFNVLYEKEGEFVAQFKFTVLLMPNGPMRITSGPFEPDLYKSEMEVQDAELKALLQSSASRKTQKKKKKKASKTAENATSGETLEENEAGD
# B8: HNRNPA1L2 (protein, UniProt Q32P51 1-320, looked up)
# Heterogeneous nuclear …: MSKSASPKEPEQLRKLFIGGLSFETTDESLRSHFEQWGTLTDCVVMRDPNTKRSRGFGFVTYATVEEVDAAMNTTPHKVDGRVVEPKRAVSREDSQRPGAHLTVKKIFVGGIKEDTEEHHLRDYFEQYGKIEVIEIMTDRGSGKKRGFAFVTFDDHDSVDKIVIQKYHTVKGHNCEVRKALPKQEMASASSSQRGRRGSGNFGGGRGDGFGGNDNFGRGGNFSGRGGFGGSCGGGGYGGSGDGYNGFGNDGSNFGGGGSYNDFGNYNNQSSNFGPMKGGNFGGRSSGPYGGGGQYFAKPQNQGGYGVSSSSSSYGSGRRF
# B9: DDX3Y (protein, UniProt O15523 2-660, looked up)
# ATP-dependent RNA helicase …: SHVVVKNDPELDQQLANLDLNSEKQSGGASTASKGRYIPPHLRNREASKGFHDKDSSGWSCSKDKDAYSSFGSRDSRGKPGYFSERGSGSRGRFDDRGRSDYDGIGNRERPGFGRFERSGHSRWCDKSVEDDWSKPLPPSERLEQELFSGGNTGINFEKYDDIPVEATGSNCPPHIENFSDIDMGEIIMGNIELTRYTRPTPVQKHAIPIIKGKRDLMACAQTGSGKTAAFLLPILSQIYTDGPGEALKAVKENGRYGRRKQYPISLVLAPTRELAVQIYEEARKFSYRSRVRPCVVYGGADIGQQIRDLERGCHLLVATPGRLVDMMERGKIGLDFCKYLVLDEADRMLDMGFEPQIRRIVEQDTMPPKGVRHTMMFSATFPKEIQMLARDFLDEYIFLAVGRVGSTSENITQKVVWVEDLDKRSFLLDILGATGSDSLTLVFVETKKGADSLEDFLYHEGYACTSIHGDRSQRDREEALHQFRSGKSPILVATAVAARGLDISNVRHVINFDLPSDIEEYVHRIGRTGRVGNLGLATSFFNEKNMNITKDLLDLLVEAKQEVPSWLENMAYEHHYKGGSRGRSKSNRFSGGFGARDYRQSSGSSSSGFGASRGSSSRSGGGGYGNSRGFGGGGYGGFYNSDGYGGNYNSQGVDWWGN
# B10: MBNL2 (protein, UniProt Q5VZF2 1-373, looked up)
# Muscleblind-like protein 2: MALNVAPVRDTKWLTLEVCRQFQRGTCSRSDEECKFAHPPKSCQVENGRVIACFDSLKGRCSRENCKYLHPPTHLKTQLEINGRNNLIQQKTAAAMLAQQMQFMFPGTPLHPVPTFPVGPAIGTNTAISFAPYLAPVTPGVGLVPTEILPTTPVIVPGSPPVTVPGSTATQKLLRTDKLEVCREFQRGNCARGETDCRFAHPADSTMIDTSDNTVTVCMDYIKGRCMREKCKYFHPPAHLQAKIKAAQHQANQAAVAAQAAAAAATVMAFPPGALHPLPKRQALEKSNGTSAVFNPSVLHYQQALTSAQLQQHAAFIPTGSVLCMTPATSIDNSEIISRNGMECQESALRITKHCYCTYYPVSSSIELPQTAC
# Legend:
# Type in all cases: binding
# [1] = test system: SARS-CoV-2 gRNA; conditions: for target (unweighted spectral count of the protein in the RNP capture): LC-MS/MS, Probe I sample (first 199 lines of Table 2)
# [2] = test system: SARS-CoV-2 gRNA and sgRNAs; conditions: for target (unweighted spectral count in RNP capture): Probe II capture, LC-MS/MS LFQ; for background (unweighted spectral count in control): no-probe control pull-down, used as background for Probe II; for target (unweighted spectral count of the protein in the RNP capture experiment): LC-MS/MS label-free quantification, probe pool not given; for back-ground (unweighted spectral count of the protein in the control experiment): protein background of the control (e.g. no-probe) experiment
# [3] = test system: gRNA of HCoV-OC43; conditions: type n_48_v: 48 hours post-infection
# [4] = test system: HCoV-OC43 gRNA and sgRNA; conditions: for target (unweighted spectral count): OC43 Probe II, infected cells
Molecule,target (unweighted spectral count of the protein in the RNP capture) [1],target (unweighted spectral count in RNP capture) [2],background (unweighted spectral count in control) [2],other results
B1,11,15,1,
B2,12,,,target (unweighted spectral count of the protein in the RNP capture experiment) [2]: 11; back-ground (unweighted spectral count of the protein in the control experiment) [2]: 2
B3,32,,,"target (spectral count, OC43 Probe I RNP capture) ([3]; infected cells, OC43 Probe I, unweighted spectral count): 63; background (spectral count, no-probe control) ([3]; no-probe control on infected cells): 4; target (unweighted spectral count, OC43 Probe II capture) ([4]; 36 hpi, type n_36_v, tested against no-probe control, FDR<10%): 52; target (unweighted spectral count) ([4]; 12 hpi (type n_12_v), tested against no-probe control): 13; target (unweighted spectral count) ([4]; 24 hpi (type n_24_v), tested against no-probe control): 24; target (unweighted spectral count, OC43 Probe II) ([4]; type n_48_v, 48 hpi, OC43 Probe II capture on infected cells): 76; background (unweighted spectral count, no-probe control) ([4]; type n_48_v, 48 hpi, no-probe control on infected cells): 4"
B4,25,,1,enrichment in SARS-CoV-2 Probe I RNP capture [1]: enriched; enrichment in SARS-CoV-2 Probe II RNP capture [2]: enriched
B5,17,24,4,
B6,6,7,1,
B7,7,,,target (unweighted spectral count of the protein in the RNP capture experiment) [2]: 5; back-ground (unweighted spectral count of the protein in the control experiment) [2]: 1
B8,6,8,1,
B9,8,27,1,
B10,7,7,1,

# — patent US20230407373A1 (priority 2020, published 2023)
